The record followed here is doi:10.1101/2022.01.02.474068.

The assay has as its target BTN2A1 B30.2 domain (human). The assay can be described thus: SEC-MALS. (In general: SEC sorts molecules by how far they enter the pores of the column.)

In general, stoichiometry N refers to the number of molecules, sites or subunits per partner or assembly. The substance “BTN2A1 B30.2 domain (domain or fragment)” came in with a stoichiometry N of 2.
